Assay [1] concerns the target T1, Human Tie2 (1-452)r1-Fc (human, UniProt Q02763 23-452).
T1 construct: range 1-452
In words: ELISA; Tie2-Fc coated at 1 ug/mL; signal at 100 ng/mL antibody vs convergence value on the parent. The method, then: (§1) The next day, the immobilized solution was removed, and the plate was washed with a TBS-T solution, and incubated for 60 minutes by the addition of 50 μL of a Blocker™ Casein in TBS (Thermo Fisher Scientific Inc., 37532) to perform blocking. The resultant was washed with a TBS-T solution, and TIE-1-Igγ1-LALA, diluted with 0.05% Tween 20 (Nacalai Tesque Inc., 28353-85)—containing Blocker™ Casein in TBS from 0.03 ng/mL to 100 ng/mL through eight steps, was added thereto in the amount of 20 μL per well. The resultant was incubated at room temperature for 90 minutes and then washed with a TBS-T solution three times, and 20 μL of a biotin-labeled anti-human kappa light chain antibody, which had been diluted to 0.1 μg/mL with 0.05% Tween 20-containing Blocker™ Casein in TBS, was added thereto. The resultant was incubated at room temperature for 60 minutes and then washed with a TBS-T solution three times, and 20 μL of alkaline phosphatase-labeled streptavidin, which had been diluted to 0.1 μg/mL with 0.05% Tween 20-containing Blocker™ Casein in TBS, was added thereto. The resultant was incubated at room temperature for 60 minutes and then washed with a TBS-T solution three times, and 50 μL of Chemiluminescent Ultra Sensitive AP Microwell and/or Membrane Substrate (450 nm), which had been 5-fold diluted with 1 mM MgCl₂-containing 20 mM TBS (pH 9.8) as a substrate, was added thereto. The resultant was incubated at room temperature under light-shielding for 40 minutes, and then luminescent intensity thereof was measured with an EnVision™ multi-label counter. The EC₅₀ value of TIE-1-Igγ1-LALA with respect to the human Tie2 (1-452)-Fc chimeric protein and 23 mutant proteins thereof were calculated. The relative value of luminescent intensity of 100 ng/mL TIE-1-Igγ1-LALA as maximum concentration point with respect to human Tie2 (1-452)-Fc chimeric protein and 23 mutant proteins thereof when the convergence value of the sigmoid curve of TIE-1-Igγ1-LALA binding to the human Tie2 (1-452)-Fc chimeric protein which was taken as 100% was calculated (Table 8 and Table 9). Further, the EC₅₀ value and the convergence value were calculated by Sigmoid-Emax model non-linear regression analysis.
For orientation: An ELISA detects its analyte on a solid surface through an enzyme-linked reagent.

Assay [2] addresses T2, Human Tie2 (1-452)m1-Fc (human, UniProt Q02763 23-452).
T2 construct: range 1-452
The description is as above. On the procedure:
as §1

Assay [3] deals with T3, Human Tie2 (1-452)c1-Fc (human, UniProt Q02763 23-452).
T3 construct: range 1-452
The assay is described as above. On the procedure: as §1

The target of assay [4] is T4, Human Tie2 (1-452)g6-Fc (human, UniProt Q02763 23-452).
T4 construct: range 1-452
The description is as above. On the procedure: as §1

For assay [5], the target named is T5, Human Tie2 (1-452)g2-Fc (human, UniProt Q02763 23-452).
T5 construct: range 1-452
Described as above. On the procedure:
as §1

For assay [6], the target named is T6, Human Tie2 (1-452)y1-Fc (human, UniProt Q02763 23-452).
T6 construct: range 1-452
The assay is described as above. On the procedure:
as §1

Assay [7] has as its target T7, Human Tie2 (1-452)r5-Fc (human, UniProt Q02763 23-452).
T7 construct: range 1-452
The assay is described as above. On the procedure: as §1

Assay [8] addresses T8, human Tie2 (1-452)-Fc chimeric protein (human, UniProt Q02763 23-452).
T8 construct: range 1-452; The stated range 1-452 begins at residue 1 of the precursor
The description is as above. The method, then: as §1

The target in assay [9] is T9, Human Tie2 (1-452)g1-Fc (human, UniProt Q02763 23-452).
T9 construct: range 1-452
Described as above. The method, then: as §1

For assay [10], the target named is T10, Human Tie2 (1-452)A5-Fc (human, UniProt Q02763 23-452).
T10 construct: range 1-452
In words: ELISA; Tie2-Fc coated at 1 ug/mL, chemiluminescence. On the procedure: as §1

Assay [11] deals with T11, Human Tie2 (1-452)A6-Fc (human, UniProt Q02763 23-452).
T11 construct: range 1-452
The description is as above. The method, then:
as §1

Assay [12] deals with T12, Human Tie2 (1-452)A4-Fc (human, UniProt Q02763 23-452).
T12 construct: range 1-452
The assay is described as above. The method, then:
as §1

Assay [13] addresses T13, Human Tie2 (1-452)A2-Fc (human, UniProt Q02763 23-452).
T13 construct: range 1-452
Described as above. On the procedure:
as §1

Assay [14] deals with T14, Human Tie2 (1-452)A3-Fc (human, UniProt Q02763 23-452).
T14 construct: range 1-452
The assay is described as above. On the procedure:
as §1

Assay [15] concerns the target T15, Human Tie2 (1-452)A1-Fc (human, UniProt Q02763 23-452).
T15 construct: range 1-452
Described as above. On the procedure: as §1

Assay [16] deals with T8, human Tie2 (1-452)-Fc chimeric protein. The description is as above. On the procedure: as §1

The source of these data is US20160222130A1 (Astellas, published 2016).

T8 sequence (Q02763 other isoform, or with tags, fused parts or gaps mutant limits assumed, form in doubt): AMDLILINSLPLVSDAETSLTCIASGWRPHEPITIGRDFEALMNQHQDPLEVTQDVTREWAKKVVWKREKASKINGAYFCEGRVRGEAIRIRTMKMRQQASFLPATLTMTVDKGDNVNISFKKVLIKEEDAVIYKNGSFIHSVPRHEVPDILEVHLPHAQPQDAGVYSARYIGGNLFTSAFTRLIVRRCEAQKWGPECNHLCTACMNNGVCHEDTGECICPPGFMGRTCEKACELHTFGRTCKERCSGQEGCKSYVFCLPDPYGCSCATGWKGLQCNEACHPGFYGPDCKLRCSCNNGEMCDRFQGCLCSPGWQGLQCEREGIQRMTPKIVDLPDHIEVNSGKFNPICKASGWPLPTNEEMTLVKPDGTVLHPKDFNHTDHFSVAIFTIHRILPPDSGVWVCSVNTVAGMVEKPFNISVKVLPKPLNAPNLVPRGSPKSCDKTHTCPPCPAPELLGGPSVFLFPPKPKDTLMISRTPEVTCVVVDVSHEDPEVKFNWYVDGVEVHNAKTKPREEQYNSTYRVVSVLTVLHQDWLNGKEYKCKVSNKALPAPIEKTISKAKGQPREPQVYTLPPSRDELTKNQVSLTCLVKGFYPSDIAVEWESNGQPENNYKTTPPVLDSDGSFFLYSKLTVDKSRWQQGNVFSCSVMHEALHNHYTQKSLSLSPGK
T10 sequence (Q02763 other isoform, or with tags, fused parts or gaps limits assumed, form in doubt): as the sequence (Q02763 other isoform, or with tags, fused parts or gaps mutant limits assumed, form in doubt) above, with S142A counted along it
T7 sequence (Q02763 other isoform, or with tags, fused parts or gaps limits assumed, form in doubt): as the sequence (Q02763 other isoform, or with tags, fused parts or gaps mutant limits assumed, form in doubt) above, with E147A counted along it
T5 sequence (Q02763 other isoform, or with tags, fused parts or gaps limits assumed, form in doubt): as the sequence (Q02763 other isoform, or with tags, fused parts or gaps mutant limits assumed, form in doubt) above, with R170A counted along it
T4 sequence (Q02763 other isoform, or with tags, fused parts or gaps limits assumed, form in doubt): as the sequence (Q02763 other isoform, or with tags, fused parts or gaps mutant limits assumed, form in doubt) above, with L176A counted along it
T2 sequence (Q02763 other isoform, or with tags, fused parts or gaps limits assumed, form in doubt): as the sequence (Q02763 other isoform, or with tags, fused parts or gaps mutant limits assumed, form in doubt) above, with W60A, K62A counted along it
T15 sequence (Q02763 other isoform, or with tags, fused parts or gaps limits assumed, form in doubt): as the sequence (Q02763 other isoform, or with tags, fused parts or gaps mutant limits assumed, form in doubt) above, with E129A counted along it
T6 sequence (Q02763 other isoform, or with tags, fused parts or gaps limits assumed, form in doubt): as the sequence (Q02763 other isoform, or with tags, fused parts or gaps mutant limits assumed, form in doubt) above, with D15A counted along it
T9 sequence (Q02763 other isoform, or with tags, fused parts or gaps limits assumed, form in doubt): as the sequence (Q02763 other isoform, or with tags, fused parts or gaps mutant limits assumed, form in doubt) above, with I172A, N175A, L176A counted along it
T13 sequence (Q02763 other isoform, or with tags, fused parts or gaps limits assumed, form in doubt): as the sequence (Q02763 other isoform, or with tags, fused parts or gaps mutant limits assumed, form in doubt) above, with V132A counted along it
T11 sequence (Q02763 other isoform, or with tags, fused parts or gaps limits assumed, form in doubt): as the sequence (Q02763 other isoform, or with tags, fused parts or gaps mutant limits assumed, form in doubt) above, with P144A counted along it
T1 sequence (Q02763 other isoform, or with tags, fused parts or gaps limits assumed, form in doubt): as the sequence (Q02763 other isoform, or with tags, fused parts or gaps mutant limits assumed, form in doubt) above, with R145A, H146A, E147A counted along it
T14 sequence (Q02763 other isoform, or with tags, fused parts or gaps limits assumed, form in doubt): as the sequence (Q02763 other isoform, or with tags, fused parts or gaps mutant limits assumed, form in doubt) above, with Y134A counted along it
T12 sequence (Q02763 other isoform, or with tags, fused parts or gaps limits assumed, form in doubt): as the sequence (Q02763 other isoform, or with tags, fused parts or gaps mutant limits assumed, form in doubt) above, with F139A counted along it
T3 sequence (Q02763 other isoform, or with tags, fused parts or gaps limits assumed, form in doubt): as the sequence (Q02763 other isoform, or with tags, fused parts or gaps mutant limits assumed, form in doubt) above, with R28A, H30A, E31A, P32A counted along it

B1: TIE-1-Igγ1-LALA (antibody, human IgG1, kappa, L234A L235A)
heavy: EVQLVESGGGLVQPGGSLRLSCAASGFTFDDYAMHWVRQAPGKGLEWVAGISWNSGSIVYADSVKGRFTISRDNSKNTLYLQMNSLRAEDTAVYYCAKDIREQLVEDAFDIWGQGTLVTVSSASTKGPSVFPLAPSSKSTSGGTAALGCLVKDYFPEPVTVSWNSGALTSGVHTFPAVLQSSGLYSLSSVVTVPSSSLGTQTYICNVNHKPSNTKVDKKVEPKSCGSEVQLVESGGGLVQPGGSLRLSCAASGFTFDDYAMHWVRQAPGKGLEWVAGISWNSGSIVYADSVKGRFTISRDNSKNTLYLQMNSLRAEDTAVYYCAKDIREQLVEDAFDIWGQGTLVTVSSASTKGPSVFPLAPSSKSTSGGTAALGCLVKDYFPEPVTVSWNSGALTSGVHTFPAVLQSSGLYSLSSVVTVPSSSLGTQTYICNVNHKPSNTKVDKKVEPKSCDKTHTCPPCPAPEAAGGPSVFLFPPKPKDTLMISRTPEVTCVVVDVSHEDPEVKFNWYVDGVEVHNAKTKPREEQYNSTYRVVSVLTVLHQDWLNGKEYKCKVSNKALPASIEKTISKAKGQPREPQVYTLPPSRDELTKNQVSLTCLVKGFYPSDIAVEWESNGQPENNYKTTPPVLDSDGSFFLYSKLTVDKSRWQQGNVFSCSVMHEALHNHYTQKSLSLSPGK
light: DIQMTQSPSSLSASVGDRVTITCRSSQSLLHSHRYNYLDWYQQKPGKAPKLLIYLGSNRASGVPSRFSGSGSGTDFTLTISSVQPEDFATYYCMQTLQTPLTFGQGTKVEIKRTVAAPSVFIFPPSDEQLKSGTASVVCLLNNFYPREAKVQWKVDNALQSGNSQESVTEQDSKDSTYSLSSTLTLSKADYEKHKVYACEVTHQGLSSPVTKSFNRGEC
notes: Tandem tetravalent format: two heavy chains (VH-CH1-linker-VH-CH1-CH2-CH3) and four light chains; also called tetravalent anti-human Tie2 antibody with L234A, L235A and P331S
For orientation: EC50 means the concentration giving half of the maximal effect. Higher therefore signals a need for much substance. On to B1, for which the “Relative value (%) of luminescent intensity” value came to 97% in assay [1]; 104% in [2]; 104% in assay [3]; 105% in assay [4]; 72% in assay [5]; 109% in assay [6]. Besides, the “Relative value (%) of luminescent intensity” value came out at 102% in assay [7], 97% in [8] and 3% in [9]. The EC50 in assay [10] worked out at 0.9 ng/mL; in assay [11] it was 1.1 ng/mL; in assay [12], 1 ng/mL; in [13], 1.3 ng/mL; in assay [14] it was 1 ng/mL; in assay [15], 1.3 ng/mL. This molecule also gave an EC50 in assay [16] of 1 ng/mL.
